Earlier results on ten substances are cited in paper PMC6406280.

As a reminder, the Kd is the concentration at which binding is half-saturated.

Data set [1] deals with T1, thrombin (UniProt P00734+P00734). As to the kind of experiment: thrombin inhibition (apparent Ki). As to conditions: no binding assay done in this paper (SEC, CD/UV melting, analysis of published structures); conditions of the cited assays not in the material.
The target of data set [2] is T1, thrombin. As to the kind of experiment: not stated (cited; equals the aKi). The conditions noted are these: no binding assay done in this paper (SEC, CD/UV melting, analysis of published structures); conditions of the cited assays not in the material.
Data set [3] deals with T1, thrombin. In words: not stated (cited). The conditions noted are these: no binding assay done in this paper (SEC, CD/UV melting, analysis of published structures), conditions of the cited assays not in the material.

Consider CACTGGTAGGTTGGGTAGGGTGGGGCCAGTG [jja], for which, in the data set with thrombin [1], the Ki was 1.2 nM.
As to CACTGGTAGGTTGGGTAGGGTGGTCCAGTG [jaa], the Ki with thrombin [1] was 1.34 nM.
For the substance “CACTGGTAGGTTGGTGTGGTTGGGGCCAGTG [31-TBA (jjj)]”, the Ki with thrombin [1] was 0.34 nM.
Take CACTGGTAGGTTGGTGTGGTTGGTCCAGTG [jaj]: the Ki with thrombin [1] is 14.2 nM.
For CGCCTAGGTTGGGTAGGGTGGGGGGCG [aja], the Ki in the data set with thrombin [1] was 13.2 nM.
As to “CGCCTAGGTTGGGTAGGGTGGTGGCG [NU172 (aaa)]”, in the data set with thrombin [1], the Ki is 0.29 nM. For the same substance, the Kd in the data set with thrombin [2] was 0.29 nM; in the data set with thrombin [3], 35 nM.
With CGCCTAGGTTGGTGTGGTTGGGGGGCG [ajj], in the data set with thrombin [1], the Ki was 48.6 nM.
In the case of CGCCTAGGTTGGTGTGGTTGGTGGCG [aaj], the Ki with thrombin [1] is 13.4 nM.
On to RE31, for which, in the data set with thrombin [3], the dissociation constant (Kd) was 0.56 nM.
Regarding mTBA, in the data set with thrombin [3] (modified TBA, not described), the equilibrium dissociation constant (Kd) was 25 nM.
